16 molecules from patent publication US20090311283A1 can be followed below.

Where two headings read alike, the source gives them in different places.

One test deals with HLA-B*0702 (human). Nature of the test: competition vs 125I probe peptide, purified HLA, gel filtration. The settings on record: remark: other sources report otherwise. On the technique in general: In gel filtration, larger molecules generally elute earlier.
The target in a further test is HLA-B*5401 (human). The test is described as above. The settings on record: remark: other sources report otherwise.
Test [1] addresses T1, HLA-DRw53 (DRB4*0101) (human).
T1 chain 1: not shown
T1 chain 2: not shown
Nature of the test: 125I-probe competition on purified DRw53; ratio vs standard 717.01 (IC50 58 nM).

For test [2], the target named is HLA-DR7 (DRB1*0701) (human).
Test [3] concerns the target HLA-DR5w11 (DRB1*1101) (human).
Test [4] addresses T2, HLA-DR4w4 (DRB1*0401) (human).
T2 chain 1: not shown
T2 chain 2: not shown
Description: 125I-probe competition on purified DR4w4; ratio vs standard 515.01 (IC50 45 nM).

In test [5] the target is T3, HLA-DR1 (DRB1*0101) (human).
T3 chain 1: not shown
T3 chain 2: not shown
Description: 125I-probe competition on purified DR1; ratio vs standard 515.01 (IC50 5.0 nM).

Test [6] addresses T4, HLA-DRB1*0101 (human).
T4 chain 1: not shown
T4 chain 2: not shown

Another test addresses T5, HLA-DRB4*0101 (human).
T5 chain 1: not shown
T5 chain 2: not shown

In another test the target is T6, HLA-DRB1*0701 (human).
T6 chain 1: not shown
T6 chain 2: not shown

Test [7] deals with T7, HLA-DRB1*0401 (human).
T7 chain 1: not shown
T7 chain 2: not shown

A further test addresses HLA-A*03 (human). Nature of the test: competitive inhibition of 125I-labelled probe peptide binding to purified HLA, gel filtration. The note with it: remark: other sources report otherwise.
The next test has as its target T8, HLA-DRB1*1101 (human).
T8 chain 1: not shown
T8 chain 2: not shown
Description: inhibition of 125I-labelled probe peptide binding to purified HLA-DR; gel filtration. The settings on record: remark: other sources report otherwise.

The target in test [8] is T4, HLA-DRB1*0101 (human). The test is described as above. The settings on record: remark: other sources report otherwise.
In test [9] the target is T7, HLA-DRB1*0401 (human). Described as above. The note with it: remark: other sources report otherwise.
For another test, the target named is T9, HLA-DRB1*0802 (human).
T9 chain 1: not shown
T9 chain 2: not shown
Described as above. The settings on record: remark: other sources report otherwise.

The next test has as its target T10, HLA-DRB1*0405 (human).
T10 chain 1: not shown
T10 chain 2: not shown
The description is as above. The settings on record: remark: other sources report otherwise.

Another test concerns the target T11, HLA-DRB5*0101 (human).
T11 chain 1: not shown
T11 chain 2: not shown
The description is as above. The settings on record: remark: other sources report otherwise.

The next test addresses T12, HLA-DRB1*0901 (human).
T12 chain 1: not shown
T12 chain 2: not shown
The test is described as above. The note with it: remark: other sources report otherwise.

Another test addresses T13, HLA-DRB1*1302 (human).
T13 chain 1: not shown
T13 chain 2: not shown
The test is described as above. The settings on record: remark: other sources report otherwise.

For the next test, the target named is T14, HLA-DRB1*1501 (human).
T14 chain 1: not shown
T14 chain 2: not shown
Described as above. The note with it: remark: other sources report otherwise.

The target in test [10] is HLA-A*6802 (Human). The settings on record: remark: other sources report otherwise.
Another test deals with HLA-B*3501 (human). Nature of the test: competition vs 125I probe peptide, purified HLA, gel filtration. The note with it: remark: other sources report otherwise.
Test [11] deals with T2, HLA-DR4w4 (DRB1*0401) (human). Description: competition with 125I probe peptide for purified HLA-DR, gel filtration.
Test [12] concerns the target T15, HLA-DR7 (DRB1*0701) (human).
T15 chain 1: not shown
T15 chain 2: not shown
The description is as above.

Test [13] has as its target HLA-DR5w12 (DRB1*1201) (human). The test is described as above.
In test [14] the target is T16, HLA-DR8w2 (DRB1*0802) (human).
T16 chain 1: not shown
T16 chain 2: not shown
Described as above.

Test [15] deals with T17, HLA-DR5w11 (DRB1*1101) (human).
T17 chain 1: not shown
T17 chain 2: not shown
The description is as above.

The target in test [16] is HLA-DR9 (DRB1*0901) (human). The test is described as above.
Test [17] concerns the target T18, HLA-DR6w19 (DRB1*1302) (human).
T18 chain 1: not shown
T18 chain 2: not shown
The description is as above.

The target of test [18] is T1, HLA-DRw53 (DRB4*0101) (human). The test is described as above.
Test [19] concerns the target T3, HLA-DR1 (DRB1*0101) (human). The test is described as above.
For test [20], the target named is T17, HLA-DR5w11 (DRB1*1101) (human). Description: inhibition of 125I probe peptide binding to purified HLA-DR, gel filtration. The note with it: remark: other sources report otherwise.
The target in test [21] is T3, HLA-DR1 (DRB1*0101) (human). The test is described as above. The settings on record: remark: other sources report otherwise.
Another test addresses HLA-A*2401 (human). Nature of the test: competition with 125I-labelled probe peptide ([..]) for purified HLA, gel filtration; relative to standard peptide 979.02.
Test [22] deals with HLA-DR6w19 (DRB1*1302) (human). The note with it: remark: other sources report otherwise.
The target in test [23] is HLA-DR2w2β2 (DRB5*0101) (human).
Test [24] has as its target HLA-DR8w2 (DRB1*0802) (human). The note with it: remark: other sources report otherwise.
The target in test [25] is HLA-DR9 (DRB1*0901) (human). The note with it: remark: other sources report otherwise.
Test [26] addresses T19, HLA-DR2w2β1 (DRB1*1501) (human).
T19 chain 1: not shown
T19 chain 2: not shown
Description: 125I-probe competition on purified DR2w2β1; ratio vs standard 507.02 (IC50 […]). The note with it: remark: other sources report otherwise.

Test [27] addresses T20, HLA-DR4w15 (DRB1*0405) (human).
T20 chain 1: not shown
T20 chain 2: not shown
Description: 125I-probe competition on purified DR4w15; ratio vs standard 717.01 (IC50 38 nM).

In a further test the target is HLA-A*0203 (Human). The note with it: remark: other sources report otherwise.
In test [28] the target is HLA-A*6802 (Human). The settings on record: remark: other sources report otherwise. This is another data set of the same source.
Another test has as its target HLA-A*0201 (Human). The note with it: remark: other sources report otherwise.
Another test has as its target HLA-A*6801 (human). Nature of the test: inhibition of 125I-labelled probe peptide binding to purified HLA, gel filtration. The settings on record: remark: other sources report otherwise.
Another test concerns the target HLA-A*0101 (Human). The settings on record: remark: other sources report otherwise.

For orientation: IC50 means the midpoint of a concentration-inhibition curve. High values mean weaker potency in that assay, low ones greater potency in that assay. VPSALNPA (modifications not checked) [Peptide 19.0016 (HBV POL 769, VPSALNPA)]: the IC50 with HLA-B*0702 (human) was found to be 3000 nM; with HLA-B*5401 (human) it was 10 nM.

WPKFAVPNLQSLTNL (modifications not checked): the binding affinity ratio (standard IC50 / test IC50) in test [1] was 0.018; in [2], 0.0008; in test [3], 0.0002; in test [4], 0.0023; in test [5], 0.0007.

For the molecule AEDLNLGNLNVSIPW (modifications not checked) [… (HBV POL 38, 15-mer)], the values for the binding affinity ratio (IC50 of standard peptide / IC50 of test peptide) with HLA-DRB1*0101 (human) [6] and in the test with HLA-DRB4*0101 (human) were 0.0001 and 0.017, respectively.

In the case of DLNLGNLNVSIPWTH (modifications not checked) [… (HBV POL 40, 15-mer)], the values for the binding affinity ratio (IC50 of standard peptide / IC50 of test peptide) with HLA-DRB1*0101 (human) [6], with HLA-DRB1*0701 (human) and with HLA-DRB1*0401 (human) [7] were 0.0038, 0.001 and 0.024, respectively.

The molecule ILRGTSFVY (modifications not checked) [HBV POL 771 peptide 1.0205 (…)] came in with an IC50 with HLA-A*03 (human) of 250 nM.

As for GFFLLTRILTIPQSL (modifications not checked) [… (HBV ENV 181, 15-mer)], the binding affinity ratio (IC50 of standard peptide / IC50 of test peptide) amounted to 2.3 in the test with HLA-DRB1*1101 (human); 0.43 with HLA-DRB1*0101 (human) [8]; 3.1 with HLA-DRB1*0401 (human) [9]; 1.6 with HLA-DRB1*0802 (human); 0.45 with HLA-DRB1*0405 (human); 0.011 with HLA-DRB5*0101 (human). The binding affinity ratio (IC50 of standard peptide / IC50 of test peptide) with HLA-DRB1*0901 (human) was determined as 0.55; with HLA-DRB1*1302 (human), 0.078; with HLA-DRB1*1501 (human), 0.015.

The molecule ILSTLPETTV (modifications not checked) [peptide 1069.14] came in with an IC50 in the test with HLA-A*6802 (Human) [10] of 5970 nM.

As to FPDHQLDPA (modifications not checked) [Peptide 16.0006 (HBV ENV 25, …)], the IC50 in the test with HLA-B*3501 (human) was 8000 nM; with HLA-B*5401 (human) it was 12 nM.

On to FVQWFVGLSPTVWLS (modifications not checked) [HBV ENV 342 peptide …], for which the relative binding (IC50 of standard peptide / IC50 of test peptide) in test [11] worked out at 0.013; in [12], 0.069; in test [13] it was 0.0021; in [14], 0.018; in [15], 0.0072; in [16] it was 0.041. For the same molecule, the relative binding (IC50 of standard peptide / IC50 of test peptide) in [17] was 0.019; in test [18], 0.0044; in test [19], 0.47.

As to CSVVRRAFPHCLAFS (modifications not checked) [HBV POL peptide …], the values for the binding affinity ratio (relative to standard peptide) in test [20] and in test [21] were 0.0008 and 0.1, respectively.

KFAVPNLQSL (modifications not checked) [HBV POL 395 …]: in the test with HLA-A*2401 (human), the binding affinity ratio (IC50 of the standard peptide / IC50 of the test peptide) stood at 0.002.

Take VGNFTGLYSSTVPVF (modifications not checked): the binding affinity ratio (standard IC50 / test IC50) in test [22] was determined as 0.058; in test [2] (remark: other sources report otherwise), 0.58; in test [23] it was 0.0016; in [24], 0.0044; in [25] it was 0.31; in [26] it was 0.01.

As to CQVFADATPTGWGLA (modifications not checked), in test [27], the binding affinity ratio (standard IC50 / test IC50) is 0.28.

For the molecule FTFSPTYKA (modifications not checked) [HBV POL 656 …], the results for the binding affinity ratio (IC50 of standard peptide / IC50 of test peptide) with HLA-A*0203 (Human), with HLA-A*6802 (Human) [28] and with HLA-A*0201 (Human) were 0.0031, 7.3 and 0.0056, respectively.

In the case of VSIPWTHK (modifications not checked) [HBV POL 50 peptide 26.0024 (VSIPWTHK)], the IC50 with HLA-A*6801 (human) amounted to 20000 nM. This counts as double-digit micromolar.

ILRGTSFVY (modifications not checked) [HBV POL 760 peptide …]: in the test with HLA-A*0101 (Human), the binding affinity ratio (IC50 of the standard peptide / IC50 of the test peptide) was found to be 0.0017.
